The record followed here is article PMC6215862, “AlNAC4 Transcription Factor From Halophyte Aeluropus lagopoides Mitigates Oxidative Stress by Maintaining ROS Homeostasis in Transgenic Tobacco”.

Changes are numbered by the printed parent chain.

Data set [1] concerns the target T1, AlNAC4 (Aeluropus lagopoides, UniProt A0A220T1T2 1-312).
T1 sequence: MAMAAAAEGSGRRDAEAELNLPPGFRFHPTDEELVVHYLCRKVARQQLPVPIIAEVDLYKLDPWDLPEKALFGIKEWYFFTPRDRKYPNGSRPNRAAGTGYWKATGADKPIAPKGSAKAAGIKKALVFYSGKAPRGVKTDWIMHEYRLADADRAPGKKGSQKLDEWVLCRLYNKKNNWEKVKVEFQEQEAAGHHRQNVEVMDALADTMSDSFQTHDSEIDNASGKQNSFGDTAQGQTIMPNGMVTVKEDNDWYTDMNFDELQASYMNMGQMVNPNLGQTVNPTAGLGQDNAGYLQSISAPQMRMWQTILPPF
Put plainly: EMSA; 15 mM HEPES, 35 mM KCl, 1 mM EDTA pH 8.0, 1 mM DTT, 1 mM MgCl2, 6% glycerol, 4 ug glycogen, 25 ul, room temperature 20 min; 10% acrylamide 0.5x TBE gel, ethidium bromide stain. The conditions noted are these: protein: recombinant; tags: 6xHis (pET-28a; not thrombin-cleaved); chain copies: 2; blunt. Background: In EMSA bound probe runs differently from free probe, usually more slowly.

In data set [2] the target is T1, AlNAC4. Put plainly: EMSA; 80 ng probe, 300-2400 ng protein; binding increases with protein; 15 mM HEPES, 35 mM KCl, 1 mM EDTA pH 8.0, 1 mM DTT, 1 mM MgCl2, 6% glycerol, 4 ug glycogen, 25 ul, room temperature 20 min; 10% acrylamide 0.5x TBE gel, ethidium bromide stain. The conditions noted are these: protein: recombinant, tags: 6xHis (pET-28a; not thrombin-cleaved), chain copies: 2.

Data set [3] concerns the target T1, AlNAC4. Put plainly: EMSA; data not shown; 15 mM HEPES, 35 mM KCl, 1 mM EDTA pH 8.0, 1 mM DTT, 1 mM MgCl2, 6% glycerol, 4 ug glycogen, 25 ul, room temperature 20 min; 10% acrylamide 0.5x TBE gel, ethidium bromide stain. The conditions noted are these: protein: recombinant; tags: 6xHis (pET-28a; not thrombin-cleaved); chain copies: 2; blunt.

B1: pBSK+ MCS (dsDNA)
DNA 1: GGGGATCCACTAGTTCTAGAGCGGCCGCCA
DNA 2: TGGCGGCCGCTCTAGAACTAGTGGATCCCC
For B1, the binding result in data set [1] is on record as “no binding”.

B2: NACBST (tandem NACRS, erd1 promoter) (dsDNA)
DNA 1: GGCCGCACACGCATGTGACACGCATGTGACACGCATGTGACACGCATGTGA
DNA 2: CTAGTCACATGCGTGTCACATGCGTGTCACATGCGTGTCACATGCGTGTGC
As to B2, the binding result in data set [2] (5' overhangs 4 nt on both strands (GGCC, CTAG)) is “binds”.

B3: NACBS (single NACRS with flanks, erd1 promoter) (dsDNA)
DNA 1: AGCTTGTGCAACTTGAGCTCTTCTTCTGTAACACGCATGTGTTGCGTTTGGTTTTTAATTTATTTGCCA
DNA 2: TGGCAAATAAATTAAAAACCAAACGCAACACATGCGTGTTACAGAAGAAGAGCTCAAGTTGCACAAGCT
Regarding B3, the binding result in data set [2] (blunt) is on record as “binds”.

B4: mutated NACBS (CATGTG to AAAAAA, AACA to TTAA) (dsDNA)
DNA 1: B3 DNA 1 with A30T, A31T, C32A, C36A, T38A, G39A, T40A, G41A
DNA 2: B3 DNA 2 with C29T, A30T, C31T, A32T, G34T, G38T, T39A, T40A
With B4, the binding result in data set [3] was “no binding”.
